From patent US20240269235A1 (Gilead, published 2024)
Residue numbers refer to the chain shown, from its start. Like-named read-outs stand apart in the source and are kept apart here.

Tests used:
[1] = biological target: T1, trimeric murine IL-2 receptor (IL-2Rα, IL-2Rβ, and IL-2Rγ) on CTLL-2 cells (murine, UniProt P01590 22-268; P16297 27-539; P34902 23-369); assay: cell-based or functional assay
T1 sequence (looked up) 1: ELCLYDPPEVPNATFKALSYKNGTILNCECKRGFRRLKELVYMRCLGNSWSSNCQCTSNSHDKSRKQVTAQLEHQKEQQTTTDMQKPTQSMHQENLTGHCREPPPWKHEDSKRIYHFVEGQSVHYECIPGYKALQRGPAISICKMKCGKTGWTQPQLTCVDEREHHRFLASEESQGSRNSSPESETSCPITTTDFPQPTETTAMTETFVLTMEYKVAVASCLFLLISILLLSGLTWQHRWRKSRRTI
T1 sequence (looked up) 2: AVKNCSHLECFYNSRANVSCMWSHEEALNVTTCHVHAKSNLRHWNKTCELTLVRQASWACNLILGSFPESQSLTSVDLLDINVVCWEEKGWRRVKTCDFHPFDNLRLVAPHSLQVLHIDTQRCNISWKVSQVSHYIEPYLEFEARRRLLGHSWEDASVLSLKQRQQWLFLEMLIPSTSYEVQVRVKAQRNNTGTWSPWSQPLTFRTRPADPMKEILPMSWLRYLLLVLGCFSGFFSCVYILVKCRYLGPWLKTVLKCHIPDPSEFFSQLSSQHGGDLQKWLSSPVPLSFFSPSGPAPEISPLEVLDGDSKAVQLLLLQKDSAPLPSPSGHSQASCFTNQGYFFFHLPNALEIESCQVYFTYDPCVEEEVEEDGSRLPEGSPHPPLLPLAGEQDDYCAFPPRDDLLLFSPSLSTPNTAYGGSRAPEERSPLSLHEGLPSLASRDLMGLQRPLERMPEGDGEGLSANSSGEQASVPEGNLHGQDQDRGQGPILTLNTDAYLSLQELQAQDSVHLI
T1 sequence (looked up) 3: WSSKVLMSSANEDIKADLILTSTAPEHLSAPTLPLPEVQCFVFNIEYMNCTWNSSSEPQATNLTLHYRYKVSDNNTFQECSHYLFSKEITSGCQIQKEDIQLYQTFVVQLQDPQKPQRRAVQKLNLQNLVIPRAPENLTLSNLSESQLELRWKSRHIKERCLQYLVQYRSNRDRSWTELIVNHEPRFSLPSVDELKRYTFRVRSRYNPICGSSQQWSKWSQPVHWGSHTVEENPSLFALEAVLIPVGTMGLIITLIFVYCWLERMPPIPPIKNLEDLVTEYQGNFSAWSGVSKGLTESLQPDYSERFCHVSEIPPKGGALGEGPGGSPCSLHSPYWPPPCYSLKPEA

[2] = biological target: T2, human IL-2Rα on Treg cells (CD3+, CD4+, CD25hi, FoxP3+) of human PBMC (human, UniProt P01589 22-272); assay: cell-based or functional assay
T2 sequence (looked up): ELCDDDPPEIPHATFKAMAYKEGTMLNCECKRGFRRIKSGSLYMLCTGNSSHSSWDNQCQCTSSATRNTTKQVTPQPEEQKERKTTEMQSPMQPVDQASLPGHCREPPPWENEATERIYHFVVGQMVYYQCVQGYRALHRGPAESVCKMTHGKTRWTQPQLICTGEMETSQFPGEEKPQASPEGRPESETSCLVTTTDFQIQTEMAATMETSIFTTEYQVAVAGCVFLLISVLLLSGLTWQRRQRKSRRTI

[3] = biological target: T3, IL-2Rα (recombinant IL-2 receptor α, R&D Systems Cat #: 223-2A/CF), biotinylated (human, UniProt P01589 22-213, limits assumed, biotinylated using sulfo-NHS-LC-LC-Biotin); assay: SPR (Biacore), C1 or CM5 chip, biotinylated receptor on neutravidin
T3 construct: Bought reagent; also used here as the IL-2Rα partner of the in-silico analysis of PDB 2B5I (another construct); also called IL-2RA; CD25
T3 sequence (looked up): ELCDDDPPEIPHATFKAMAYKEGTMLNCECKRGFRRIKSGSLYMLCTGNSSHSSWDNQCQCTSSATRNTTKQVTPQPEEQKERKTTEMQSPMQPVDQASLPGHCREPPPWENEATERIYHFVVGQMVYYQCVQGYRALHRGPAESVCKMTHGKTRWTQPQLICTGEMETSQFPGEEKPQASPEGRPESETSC
From the text: (§1) Data for binding of Fc-IL-2 variant fusion proteins to IL-2Rα, IL-2Rβ and IL-2Rβγ heterodimer were collected on a Biacore platform using either C1 or CM5 chips. Neutravidin was immobilized using standard amine coupling methods and used to capture biotinylated receptors. Commercially sourced IL-2Rα (R&D Systems Cat #: 223-2A/CF) and IL-2Rβ receptors (R&D Systems Cat #:224-2B-025/CF) were biotinylated using sulfo-NHS-LC-LC-Biotin, desalted, and then captured on the neutravidin surfaces. […] Distinct purification tags were appended to the C-terminus of each chain. A FLAG epitope tag ([…]; SEQ ID NO: 257) was added at the C-terminus of IL-2Rβ subunit, followed by C-terminal Hiss tag ([…]; SEQ ID NO: 258). An AviTag™ ([…]; SEQ ID NO: 259) motif on the IL-2Rγ subunit allowed for site-specific biotinylation of the heterodimer.
(§2) Fc IL 2 fusion protein variants, Fc protein, and Proleukin were injected at various concentrations over these surfaces. Kinetic data obtained from these injections was used to extract kₒₙ and koff to calculate KD (KD=koff/kₒₙ). Experiments were run at 25° C. in HBS-EP+ running buffer (10 mM HEPES, 150 mM NaCl, 3 mM EDTA, 0.05% Tween20, pH 7.4 with 0.1 mg/ml BSA). Data shown in Table 5 for Fc IL-2 fusion protein variants binding to the indicated IL-2R surfaces were derived from the global fitting of data obtained from 2-5 independent surfaces.

[4] = biological target: T4, IL-2Rβ (recombinant IL-2 receptor β, R&D Systems Cat #:224-2B-025/CF), biotinylated (UniProt P14784 27-239, limits assumed, biotinylated using sulfo-NHS-LC-LC-Biotin); assay: as above
T4 construct: Bought reagent; also called IL-2RB; CD122
T4 sequence (looked up): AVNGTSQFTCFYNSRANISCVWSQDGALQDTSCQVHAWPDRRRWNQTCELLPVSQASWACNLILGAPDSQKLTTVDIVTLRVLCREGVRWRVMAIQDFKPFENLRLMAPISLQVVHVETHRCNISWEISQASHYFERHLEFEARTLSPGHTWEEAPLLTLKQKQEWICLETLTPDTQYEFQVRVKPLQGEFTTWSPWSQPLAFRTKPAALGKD
From the text: as §1, §2

[5] = biological target: T1, trimeric murine IL-2 receptor (IL-2Rα, …); assay: cell-based or functional assay; remark: listed apart in the source
[6] = biological target: T5, IL-2Rβγ heterodimer, custom biotinylated Fc fusion protein (human IL-2Rβ 27-240-Fc-FLAG / human IL-2Rγ … (human, site-specific biotinylation at the AviTag)); assay: SPR (Biacore), CM4 chip, biotinylated receptor on neutravidin
T5 construct: Extracellular regions fused to IgG1 knob-in-hole Fc subunits with tags; also called IL-2 receptor βγ heterodimer; Fc-IL-2Rβγ
Protocol: Fc-IL-2 variant binding data was collected on a Biacore platform using a CM4 chip. Neutravidin was immobilized using standard amine coupling methods and used to capture biotinylated receptors. The source, preparation and immobilization of biotinylated IL-2Rα and IL-2Rβγ heterodimer was as described in Example 4. Proleukin was used as a comparator. Fc-IL-2 variants and Proleukin were injected at various concentrations over these surfaces. Kinetic data obtained from these injections was used to extract kₒₙ and koff to calculate KD (KD=Koff/kₒₙ).

T5 sequence (chain, as listed by the source limits assumed): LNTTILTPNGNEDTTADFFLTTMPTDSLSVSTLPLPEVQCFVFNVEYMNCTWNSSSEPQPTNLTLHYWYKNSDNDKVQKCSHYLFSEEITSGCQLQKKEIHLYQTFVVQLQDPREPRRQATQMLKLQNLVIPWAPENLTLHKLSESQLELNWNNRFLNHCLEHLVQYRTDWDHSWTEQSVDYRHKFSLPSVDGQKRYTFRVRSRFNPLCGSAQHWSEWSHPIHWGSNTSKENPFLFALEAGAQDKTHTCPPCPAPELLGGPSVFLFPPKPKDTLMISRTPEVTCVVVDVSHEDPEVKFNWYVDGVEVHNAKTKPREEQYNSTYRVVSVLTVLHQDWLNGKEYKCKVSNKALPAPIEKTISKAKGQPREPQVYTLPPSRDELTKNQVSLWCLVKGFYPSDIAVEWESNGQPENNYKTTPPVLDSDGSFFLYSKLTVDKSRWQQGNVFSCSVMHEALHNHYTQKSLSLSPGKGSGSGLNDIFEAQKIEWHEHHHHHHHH

B1: Fc-IL-2v heterodimer 82.46 (hIL-2v_Δ1-5_R38A_C125S) (Fc fusion)
chain 1: ESKYGPPCPPCPAPEAAGGPSVFLFPPKPKDTLMISRTPEVTCVVVDVSQEDPEVQFNWYVDGVEVHNAKTKPREEQFNSTYRVVSVLTVLHQDWLNGKEYKCKVSNKGLPSSIEKTISKAKGQPREPQVYTLPPSQEEMTKNQVSLWCLVKGFYPSDIAVEWESNGQPENNYKTTPPVLDSDGSFFLYSRLTVDKSRWQEGNVFSCSVMHEALHNHYTQKSLSLSLGGGGGSGGGGSGGGGSGGGGSSTKKTQLQLEHLLLDLQMILNGINNYKNPKLTAMLTFKFYMPKKATELKHLQCLEEELKPLEEVLNLAQSKNFHLRPRDLISNINVIVLELKGSETTFMCEYADETATIVEFLNRWITFSQSIISTLT
chain 2: ESKYGPPCPPCPAPEAAGGPSVFLFPPKPKDTLMISRTPEVTCVVVDVSQEDPEVQFNWYVDGVEVHNAKTKPREEQFNSTYRVVSVLTVLHQDWLNGKEYKCKVSNKGLPSSIEKTISKAKGQPREPQVYTLPPSQEEMTKNQVSLSCAVKGFYPSDIAVEWESNGQPENNYKTTPPVLDSDGSFFLVSRLTVDKSRWQEGNVFSCSVMHEALHNRFTQKSLSLSLGK
notes: hIgG4 knob-in-hole Fc heterodimer, one IL-2v on the knob chain
[1]
  STAT5 activation of CTLL-2 cells, EC50: 0.01 nM
[2]
  Treg EC50, STAT5 activation (PBMC STAT5 assay): < 0.001 nM
[3]
  Kd: 108 nM
[4]
  Kd: 8200 nM

B2: Fc-IL-2v heterodimer 84.46 (hIL-2v_Δ1-5_T41A_C125S) (Fc fusion)
chain 1: B1 chain 1 with A281R, T284A
chain 2: B1 chain 2
notes: as for B1
[1]
  STAT5 activation of CTLL-2 cells, EC50: 0.03 nM
[2]
  Treg EC50, STAT5 activation (PBMC STAT5 assay): < 0.001 nM
[3]
  Kd: 119 nM
[4]
  Kd: 7000 nM

B3: Fc-IL-2v heterodimer 85.46 (hIL-2v_Δ1-5_F42G_C125S) (Fc fusion)
chain 1: B1 chain 1 with A281R, F285G
chain 2: B1 chain 2
notes: as for B1
[1]
  STAT5 activation of CTLL-2 cells, EC50: 5.5 nM
[2]
  Treg EC50, STAT5 activation (PBMC STAT5 assay): 0.06 nM
[3]
  Kd: 4900 nM
[4]
  Kd: 7500 nM

B4: Fc-IL-2v heterodimer 97.46 (hIL-2v_Δ1-5_Y45G_E62A_C125S) (Fc fusion)
chain 1: B1 chain 1 with A281R, Y288G, E305A
chain 2: B1 chain 2
notes: as for B1
[5]
  STAT5 activation of CTLL-2 cells, EC50: 3.4 nM
[6]
  Kd: 0.065 nM

B5: Fc-IL-2v heterodimer 100.46 (hIL-2v_Δ1-5_F42A_E61A_C125S) (Fc fusion)
chain 1: B1 chain 1 with A281R, F285A, E304A
chain 2: B1 chain 2
notes: as for B1
[5]
  STAT5 activation of CTLL-2 cells, EC50: 1.6 nM
[6]
  Kd: 0.061 nM

B6: Fc-IL-2v heterodimer 101.46 (hIL-2v_Δ1-5_F42A_Y45G_C125S) (Fc fusion)
chain 1: B1 chain 1 with A281R, F285A, Y288G
chain 2: B1 chain 2
notes: as for B1
[5]
  STAT5 activation of CTLL-2 cells, EC50: 7.7 nM
[6]
  Kd: 0.054 nM

B7: Fc-IL-2v heterodimer 102.46 (hIL-2v_Δ1-5_Y45G_E61A_E62A_C125S) (Fc fusion)
chain 1: B1 chain 1 with A281R, Y288G, E304A, E305A
chain 2: B1 chain 2
notes: as for B1
[5]
  STAT5 activation of CTLL-2 cells, EC50: 6.1 nM
[6]
  Kd: 0.073 nM

B8: Fc-IL-2v heterodimer 103.46 (hIL-2v_Δ1-5_E61A_E62A_C125S) (Fc fusion)
chain 1: B1 chain 1 with A281R, E304A, E305A
chain 2: B1 chain 2
notes: as for B1
[5]
  STAT5 activation of CTLL-2 cells, EC50: 2.7 nM
[6]
  Kd: 0.096 nM

B9: Fc-IL-2v heterodimer 104.46 (hIL-2v_Δ1-5_R38G_F42A_C125S) (Fc fusion)
chain 1: B1 chain 1 with A281G, F285A
chain 2: B1 chain 2
notes: as for B1
[5]
  STAT5 activation of CTLL-2 cells, EC50: 1.4 nM
[6]
  Kd: 0.061 nM

B10: Fc-IL-2v heterodimer 106.46 (hIL-2v_Δ1-5_R38G_F42A_Y45G_C125S) (Fc fusion)
chain 1: B1 chain 1 with A281G, F285A, Y288G
chain 2: B1 chain 2
notes: as for B1
[5]
  STAT5 activation of CTLL-2 cells, EC50: 19.6 nM
[6]
  Kd: 0.06 nM

B11: Fc-IL-2v heterodimer 109.46 (hIL-2v_Δ1-5_F42A_Y45G_E61A_C125S) (Fc fusion)
chain 1: B1 chain 1 with A281R, F285A, Y288G, E304A
chain 2: B1 chain 2
notes: as for B1
[5]
  STAT5 activation of CTLL-2 cells, EC50: 36.2 nM
[6]
  Kd: 0.056 nM

B12: Fc-IL-2v heterodimer 110.46 (hIL-2v_Δ1-5_R38G_Y45G_E61A_C125S) (Fc fusion)
chain 1: B1 chain 1 with A281G, Y288G, E304A
chain 2: B1 chain 2
notes: as for B1
[5]
  STAT5 activation of CTLL-2 cells, EC50: 1.5 nM
[6]
  Kd: 0.059 nM

B13: Fc-IL-2v heterodimer 111.46 (hIL-2v_Δ1-5_R38G_F42A_E61A_C125S) (Fc fusion)
chain 1: B1 chain 1 with A281G, F285A, E304A
chain 2: B1 chain 2
notes: as for B1
[5]
  STAT5 activation of CTLL-2 cells, EC50: 11 nM
[6]
  Kd: 0.069 nM

B14: Fc-IL-2v heterodimer 112.46 (hIL-2v_Δ1-5_R38G_Y45G_E62A_C125S) (Fc fusion)
chain 1: B1 chain 1 with A281G, Y288G, E305A
chain 2: B1 chain 2
notes: as for B1
[5]
  STAT5 activation of CTLL-2 cells, EC50: 13.1 nM
[6]
  Kd: 0.066 nM

B15: Fc-IL-2v heterodimer 115.46 (hIL-2v_Δ1-5_F42A_E61A_E62A_C125S) (Fc fusion)
chain 1: B1 chain 1 with A281R, F285A, E304A, E305A
chain 2: B1 chain 2
notes: as for B1
[5]
  STAT5 activation of CTLL-2 cells, EC50: 67.1 nM
[6]
  Kd: 0.093 nM

B16: Fc-IL-2v heterodimer 116.46 (hIL-2v_Δ1-5_R38G_E61A_E62A_C125S) (Fc fusion)
chain 1: B1 chain 1 with A281G, E304A, E305A
chain 2: B1 chain 2
notes: as for B1
[5]
  STAT5 activation of CTLL-2 cells, EC50: 16.3 nM
[6]
  Kd: 0.115 nM
